{
  "source": "patent US20250041430A1",
  "about": "“CONJUGATE COMPOUND AND METHOD FOR PRODUCING CONJUGATE COMPOUND” (NIPPON SHOKUBAI CO., LTD., priority 2021, published 2025)",
  "key": {"[1]": {"tested_on": "complement (SC5b-9) in human serum", "experiment": "Evaluation of complement activation (2), MicroVue SC5b-9 Plus EIA", "details": "37° C., 1 hour, compared with the oligonucleic acid, FIG. 5", "text": "Using a microspectrophotometer (NanoDrop ND-1000, Thermo Fisher Scientific Inc.), Conjugates 5 and 6 thus obtained were each diluted with PBS so that the value at a wavelength of 260 nm was 100. On the other hand, a conjugate (PEG-nucleic acid) prepared according to the description in the section of [Preparation of conjugate of polymer and oligonucleic acid] except that maleimide PEG (SUNBRIGHT ME-100MA, NOF CORPORATION) was used instead of Polymer 3, and the oligonucleic acid (base sequence (5′-d (TAGCACCATGGTTT)-3′)) described in Example 2 were each dissolved in 20 μL of PBS so that the value at a wavelength of 260 nm was 100 by the method described above to prepare a control group. Each solution (4 μL) and human serum (purchased from Tennessee Blood Service) (16 μL) were mixed and incubated at 37° C. for 1 hour. […] For each mixed solution, complement activation was evaluated using an enzyme immunoassay kit (MicroVue™ SC5b-9 Plus EIA, Quidel Corporation). The complement concentration was measured according to the manufacturer's protocol, and the measurement was performed on a plate reader (SH-9000, CORONA ELECTRIC Co., Ltd.). A reaction liquid obtained by reacting PBS with human serum was used as a negative control, and a ratio of the measured value of the negative control and a measured value in each reaction liquid was calculated by the following formula."}, "Exonuclease I [2]": {"biological_target": "T1, Exonuclease I (Escherichia coli, UniProt P04995)", "T1 sequence (P04995 whole entry, looked up)": "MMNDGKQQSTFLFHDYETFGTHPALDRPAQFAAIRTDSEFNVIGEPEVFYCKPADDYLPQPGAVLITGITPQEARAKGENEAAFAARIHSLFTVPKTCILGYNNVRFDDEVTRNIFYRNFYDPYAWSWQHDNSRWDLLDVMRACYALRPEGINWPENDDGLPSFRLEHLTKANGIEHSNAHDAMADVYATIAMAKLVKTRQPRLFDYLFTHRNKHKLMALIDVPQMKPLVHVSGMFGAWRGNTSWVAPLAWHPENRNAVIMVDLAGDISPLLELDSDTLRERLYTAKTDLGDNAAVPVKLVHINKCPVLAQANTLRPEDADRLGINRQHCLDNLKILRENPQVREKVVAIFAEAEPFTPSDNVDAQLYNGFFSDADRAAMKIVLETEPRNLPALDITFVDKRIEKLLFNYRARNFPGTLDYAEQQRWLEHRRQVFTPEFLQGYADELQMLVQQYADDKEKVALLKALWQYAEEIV", "details": "room temperature (about 25° C.), 0, 10 and 20 minutes, FIG. 4", "description": "(§1) Quantitative analysis of PGLMA-Mal-nucleic acid and an unmodified nucleic acid in a nucleic acid degradation test described below was performed by ion exchange chromatography. At this time, the analysis conditions were as follows. […]\n(§2) To a test tube, 42.5 μL (1.00 nmol) of the PGLMA-Mal-nucleic acid solution obtained in the section of [Preparation of conjugate of Polymer 1 and oligonucleic acid], 5 μL of 10× buffer solution (670 mM Glycine-KOH (pH 9.5), 10 mM DTT, 67 mM MgCl2), 2.5 μL of ultrapure water, and 0.5 μL of Exonuclease I (Takara Bio Inc.) (0.05 Unit/L as the final concentration of Exonuclease I in the mixed solution) were added and mixed, and the mixture was allowed to stand still at room temperature (about 25° C.). […] After 0, 10, and 20 minutes from the start of the reaction, the reaction liquid was collected and analyzed under the analysis conditions in the section of [Analysis conditions of conjugate of Polymer 1 and oligonucleic acid] or the section of [Analysis conditions of unmodified oligonucleic acid], and a residual rate of the nucleic acid was calculated from the following formula."}, "Exonuclease I [3]": {"biological_target": "Exonuclease I (Escherichia coli, UniProt P04995)", "details": "room temperature (about 25° C.), 0, 10 and 20 minutes, FIG. 4", "remark": "listed apart in the source", "description": "as §1, §2"}, "[4]": {"tested_on": "complement (SC5b-9) in human serum", "experiment": "Evaluation of complement activation (1), MicroVue SC5b-9 Plus EIA", "details": "37° C., 1 hour, compared with BSA, FIG. 2", "procedure": "Using a microspectrophotometer (NanoDrop ND-1000, Thermo Fisher Scientific Inc.), Conjugates 1 to 4 subjected to ultrafiltration treatment were each diluted with PBS so that the value at a wavelength of 280 nm was 100. On the other hand, a conjugate (PEG-BSA) prepared according to the description in the section of [Preparation of conjugate with protein] except that maleimide PEG (SUNBRIGHT ME-100MA, NOF CORPORATION) was used instead of Polymer 1, and 100 mg of BSA were each dissolved in 1 mL of PBS to prepare a control group. Each solution (40 μL) and human serum (purchased from Tennessee Blood Service) (160 μL) were mixed and incubated at 37° C. for 1 hour. […] For each mixed solution, complement activation was evaluated using an enzyme immunoassay kit (MicroVue™ SC5b-9 Plus EIA, Quidel Corporation). The complement concentration was measured according to the manufacturer's protocol, and the measurement was performed on a plate reader (SH-9000, CORONA ELECTRIC Co., Ltd.). A reaction liquid obtained by reacting PBS with human serum was used as a negative control, and a ratio of the measured value of the negative control and a measured value in each reaction liquid was calculated by the following formula.\n(Ratio with negative control)=(Measured value in each sample)÷(Measured value of negative control)"}},
  "data": [
    {"substance": "Conjugate 5: maleimide group of Polymer 1 bonded to the thiol group of the oligonucleic acid 5′-d (TAGCACCATGGTTT)-3′ (DNA, backbone not given here; conjugated to polymer via maleimide-thiol, further chemistry not fully specified)", "values": [
      {"measurement": "complement activation (ratio with negative control)", "setting": "[1]", "value": "no large difference from the measured value of the oligonucleic acid"},
      {"measurement": "degradation of the nucleic acid (residual rate of the nucleic acid)", "setting": "Exonuclease I [2]", "value": "remarkable degradation of the nucleic acid was not observed"}
    ]},
    {"substance": "5′-d (TAGCACCATGGTTT)-3′ [unmodified nucleic acid]", "values": [
      {"measurement": "degradation of the nucleic acid (residual rate of the nucleic acid)", "setting": "Exonuclease I [3]", "value": "degradation of the nucleic acid was observed over time"}
    ]},
    {"substance": "PEG-BSA: conjugate with BSA prepared using maleimide PEG (SUNBRIGHT ME-100MA) instead of Polymer 1", "values": [
      {"measurement": "complement activation (ratio with negative control)", "setting": "[4]", "value": "strong complement activation occurred"}
    ]}
  ]
}
